# Laboratory results taken from patent publication US20120277143A1 (Janssen / Centocor, published 2012).
# Substitutions are numbered along the chain they refer to.
# B1: 7G11 (designed binder)
# chain: DLGKKLLEAARAGQDDEVRILMANGADVNATDEFDSTPLHLAARHGHLEIVEVLLKYGADVNAADFIGDTPLHLAAYRGHLEIVEVLLKCGVDVNADDHGDTPLHLAASMGHLEIVEVLLKNGADVNAQDKFGKTAFDISIDNGNEDLAEILQKLN
# notes: ankyrin repeat protein
# B2: 9F8r3 (designed binder)
# chain: GLDKKLLEAARAGQDDEVRILMANGADVNASDIFGSTPLHLAARHGHLEIVEVLLKYGADVNAFDFIGDTPLHLAAYRGHLEIVEVLLKYGVDVNADDHGDTPLHLAAQIGHLEIVEVLLKHGADVNAQDKFGKTAFDISIDNGNEDLAEILQKAA
# notes: optimized 9F8; expressed without HIS tag
# B3: 7G11r7 (designed binder)
# chain: B2 chain with S31T, I33E, G35D, F64A, Q109S, I110T
# notes: optimized 7G11; expressed without HIS tag
# B4: C06_28E5v1 (designed binder)
# chain: DLGKKLLEAARAGQDDEVRILMANGADVNAADDSGITPLHLAAEDGHLEIVEVLLKAGADVNAQDNLGDTPLHLAAWTGHLEIVEVLLKAGADVNAYDISGITPLHLAAFYGHLEIVEVLLKHGADVNAQDKFGKTAFDISIDNGNEDLAEILQKLN
# B5: C06_53G6_V1_C01_6G9_V1 (designed binder)
# chain: DLGKKLLEAARAGQDDEVRILMANGADVNATDDWGDTLLHLAATDGHLEIVEVLLKAGADVNANDAIGDTPLHLAALYGHLEIVEVLLKYGADVNATDLHGFTPLHLAAFWGHLEIVEVLLKHGADVNAQDKFGKTAFDISIDNGNEDLAEILQKLNGGGGSGGGGSGGGGSGGGGSDLDKKLLEAARAGQDDEVRILMANGADVNARDSYGSTPLHLAAREGHLEIVEVLLKYGADVNAADFIGDTPLHLAAYRGHLEIVEVLLKYGADVNASDITGETPLHLAAQIGHLEIVEVLLKHGADVNAQDKFGKTAFDISIDNGNEDLAEILQKLN
# notes: bispecific IL4/IL13 ankyrin repeat protein with (GGGGS)4 linker; also called bispecific AR protein
# B6: C01_6G9_V1_C06_28E5_V1 (designed binder)
# chain: DLDKKLLEAARAGQDDEVRILMANGADVNARDSYGSTPLHLAAREGHLEIVEVLLKYGADVNAADFIGDTPLHLAAYRGHLEIVEVLLKYGADVNASDITGETPLHLAAQIGHLEIVEVLLKHGADVNAQDKFGKTAFDISIDNGNEDLAEILQKLGGGGSGGGGSGGGGSGGGGSRSDLGKKLLEAARAGQDDEVRILMANGADVNAADDSGITPLHLAAEDGHLEIVEVLLKAGADVNAQDNLGDTPLHLAAWTGHLEIVEVLLKAGADVNAYDISGITPLHLAAFYGHLEIVEVLLKHGADVNAQDKFGKTAFDISIDNGNEDLAEILQKLN
# notes: bispecific IL13/IL4 ankyrin repeat protein with (GGGGS)4 linker; also called bispecific AR protein
# B7: C06_53G6v1 (designed binder)
# chain: DLGKKLLEAARAGQDDEVRILMANGADVNATDDWGDTLLHLAATDGHLEIVEVLLKAGADVNANDAIGDTPLHLAALYGHLEIVEVLLKYGADVNATDLHGFTPLHLAAFWGHLEIVEVLLKHGADVNAQDKFGKTAFDISIDNGNEDLAEILQKLN
# B8: IL13 binding protein 6G9 (designed binder)
# chain: DLGKKLLEAARAGQDDEVRILMANGADVNARDSYGSTPLHLAAREGHLEIVEVLLKYGADVNAKDMIGDTPLHLAAYRGHLEIVEVLLKNGADVNASDITGETPLHLAAQIGHLEIVEVLLKYGADVNAQDKFGKTAFDISIDNGNEDLAEILQKLN
# B9: 6G9r13 (designed binder)
# chain: B8 chain with D1A, G3D, K64A, M66F, N90Y, Y123H, L156A, N157A
# notes: optimized 6G9; expressed without HIS tag
# Legend:
# human IL13 [1] = target: T1, human IL13 (human, UniProt P35225 35-146, biotinylated in the SPR assays (sites not given)); experiment: cell-based or functional assay
# T1 sequence (P35225 other isoform, or with tags, fused parts or gaps limits assumed): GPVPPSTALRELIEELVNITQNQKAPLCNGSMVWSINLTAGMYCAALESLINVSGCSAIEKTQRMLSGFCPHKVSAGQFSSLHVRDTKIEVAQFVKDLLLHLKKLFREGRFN
# cyno IL13 = cyno IL13 (cynomolgus monkey, UniProt Q0PW92 21-132); experiment: cell-based or functional assay
# cyno IL13, sequence (Q0PW92 entry or part of it): as the sequence (P35225 other isoform, or with tags, fused parts or gaps limits assumed) above, with G1S, R10K, M42V, S67N, H83R, L100V, R110Q counted along it
# human IL13 [2] = target: T1, human IL13; experiment: cell-based or functional assay; remark: listed apart in the source
# human IL13 [3] = target: T1, human IL13; experiment: SPR BIAcore, biotin-IL13 on SA chip, global fit
# Description: Recombinant human IL13 (Peprotech) was minimally biotinylated on ice using sulfo-NHS-LCLC-Biotin and desalted into the experimental running buffer containing 10 mM HEPES, 150 mM NaCl, pH 7.4, 0.01% Tween-20, and 0.1 mg/mL BSA. Biotinylated IL13 was captured at three different surface densities (from about 150, 50, and 25 RU) onto three different BIAcore SA (streptavidin) sensor chips. Each binding protein sample was tested at 40 nM as the highest concentration in a 3-fold dilution series over the three different density IL13 surfaces. The dissociation phase for the highest concentration of the binding protein sample was monitored for one hour. The response data from each of the different density surfaces was globally fitted in order to extract estimates of the kinetic and affinity constants which are provided in Table 7 below.
# human IL13 [4] = target: T1, human IL13; experiment: SPR ProteOn, biotin-hIL13 on streptavidin, 1:1 global fit
# Description: Complete kinetic data describing binding of various engineered binding protein molecules to human IL13 was measured using a method similar to that described above for the single point affinity analysis. Briefly, streptavidin (Pierce) was immobilized to similar levels (˜1800 RUs) on all six channels of a ProteOn GLC chip via amine coupling (pH 5.0). Biotinylated hIL13 was captured at different surface densities (600˜100 RUs) on different channels. Protein binding was tested starting at 40 nM diluted in a 3-fold concentration series over the different density IL13 surfaces; a buffer sample was injected to monitor the baseline stability. Dissociation phases for all concentrations of each binding protein sample were monitored for one hour at a flow rate of 100 μl/min. Response data for all concentration series from the different density surfaces were globally fit to a 1:1 simple langmuir binding model to extract values of the kinetic (kₒₙ, koff) and affinity (KD) constants provided in Table 16.
# human IL13 R130Q [5] = target: T2, human IL13 R130Q (human, UniProt P35225 35-146, biotinylated (sites not given)); experiment: Luminex competition, 80 pM biotin-IL13 R130Q binding to IL13Ra2-Fc beads
# T2 construct: Peprotech; also called IL13R13Q; R111Q
# T2 sequence (P35225 35-146 limits assumed, stated change not applied): as the sequence (P35225 other isoform, or with tags, fused parts or gaps limits assumed) above, with R110Q counted along it
# Description: (§1) Binding protein inhibition of IL13 binding to Rα2 was assessed using IL13Rα2-Fc (R&D Systems) conjugated to carboxylated Luminex microspheres according to the manufacturer's protocol. For biotinylation of IL13, recombinant human IL13 R130Q (Peprotech) was biotinylated at a 4:1 ratio using EZ-Link NHS-LC-Biotin (Pierce, #21336) for 2 hours at RT. The protein was dialyzed in PBS overnight to remove excess biotinylation reagent. For neutralization experiments, 5000 IL13 Rα2-Fc conjugated beads in 50 μl were added to each well of a 96-well filter plate (Millipore). 50 μl of biotinylated human IL13 at 1 ng/ml (80 pM) was mixed with an appropriate dilution of binding protein in Luminex Assay Buffer (PBS, 1% BSA, pH 7.4). The plate was incubated for 1 hour at RT in the dark on a plate shaker, set to shake vigorously to avoid bead aggregation. The plate was washed 3 times with 150 μl of wash buffer (PBS, 1% BSA, pH 7.4, 0.05% Tween-20) using a vacuum manifold followed by the addition of 50 μl of Streptavidin PE at 25 μg/ml and incubated at RT for 20 minutes. The plates were washed again and 100 μl of sheath fluid was added and the plate was placed on the shaker for 1 minute. Plates were read using a Luminex® 100 system; data were plotted as a function of binding protein concentration. IC₅₀ values were determined by fitting the data to the equation for sigmoidal dose response using PRIZM software (GraphPAD PRIZM).
# human IL4 [6] = target: T3, human IL4 (human, UniProt P05112 25-153, biotinylated in the SPR and competition assays (sites not given)); experiment: cell-based or functional assay
# T3 sequence: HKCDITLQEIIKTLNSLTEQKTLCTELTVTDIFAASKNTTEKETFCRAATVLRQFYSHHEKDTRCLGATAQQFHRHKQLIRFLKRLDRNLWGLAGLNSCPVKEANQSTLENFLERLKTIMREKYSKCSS
# human IL4 [7] = target: T3, human IL4; experiment: binding to recombinant IL4; kinetic method not restated
# human IL13 [8] = target: T1, human IL13; experiment: cell-based or functional assay; remark: listed apart in the source
# human IL4 [9] = target: T3, human IL4; experiment: cell-based or functional assay; remark: listed apart in the source
# human IL4 [10] = target: T3, human IL4; experiment: Affinity to IL4; method not re-described
# human IL13 [11] = target: T1, human IL13; experiment: Affinity to IL13; method not re-described
# human IL4 [12] = target: T3, human IL4; experiment: IL4R binding inhibition; repeats Table 17
# Description: AR protein inhibition of IL4 binding to IL4 RA was assessed using IL4 RA-Fc (R&D Systems), comprising the Gly24-His232 which represents the ECD (SEQ ID NO: 5) fused to a human IgGl-Fc and therefor a disulfide linked homodimer. The protein was conjugated to carboxylated Luminex microspheres according to the manufacturer's protocol. For neutralization experiments, 5000 IL4RA-Fc conjugated beads in 50 μl were added to each well of a 96-well filter plate (Millipore). Biotinylated human IL4 was mixed with an appropriate dilution of AR protein in Luminex Assay Buffer (PBS, 1% BSA, pH 7.4) to give a final concentration of 67 pM IL4. The plate was incubated for 1 hour at RT in the dark on a plate shaker, set to shake vigorously to avoid bead aggregation. The plate was washed twice with 150 μl of wash buffer (PBS, 0.1% BSA, pH 7.4, 0.05% Tween-20) using a vacuum manifold followed by the addition of 50 μl of Streptavidin PE at 25 μg/ml and incubated at RT for 20 minutes. The plates were washed again and 150 μl of sheath fluid was added and the plate was placed on the shaker for 5 minute. Plates were read using a Luminex® 100 system; data were plotted as a function of AR protein concentration. IC₅₀ values were determined by fitting the data to the equation for sigmoidal dose response using PRISM software (GraphPAD PRISM) (Table 6).
# human IL13 R130Q [13] = target: T2, human IL13 R130Q; experiment: IL13Ra2 binding inhibition; repeats Table 17
# Description: as §1
# human IL4 [14] = target: T3, human IL4; experiment: IL4RA binding inhibition; assay not re-described (Luminex of Example 2)
# human IL13 R130Q [15] = target: T2, human IL13 R130Q; experiment: IL13Ra2 binding inhibition; assay not re-described (Luminex of Example 2)
# Description: as §1
binder,measurement,setting,value
B1,STAT6 Phospho IC50,human IL13 [1],0.0025 nM
same,TARC expression IC50,human IL13 [1],0.0196 nM
same,Cyno IL13 STAT6 IC50,cyno IL13,0.098 nM
same,HEK STAT6 IC50,human IL13 [2],0.0025 nM
same,Kd,human IL13 [3],0.0328 nM
same,koff,human IL13 [3],5.3e-05 s⁻¹
same,kon,human IL13 [3],1.62e+06 M⁻¹ s⁻¹
same,Kd,human IL13 [4],0.0168 nM
same,IC50,human IL13 R130Q [5],0.0034 nM
B2,HEK STAT6 IC50,human IL13 [2],0.202 nM
same,Kd,human IL13 [4],0.0656 nM
B3,HEK STAT6 IC50,human IL13 [2],0.085 nM
same,Kd,human IL13 [4],0.0242 nM
B4,IC50 STAT6,human IL4 [6],0.0031 nM
same,Kd,human IL4 [7],0.00838 nM
B5,A549/TARC IL13 IC50,human IL13 [8],0.131 nM
same,HEK Stat6 human IL13 IC50,human IL13 [8],0.027 nM
same,A549/TARC IL4 IC50,human IL4 [9],0.05 nM
same,HEK stat6 hIL4 IC50,human IL4 [9],0.0039 nM
same,Ramos Assay IC50,human IL4 [9],0.008 nM
same,Kd,human IL4 [10],0.0109 nM
same,Kd,human IL13 [11],0.0384 nM
same,IC50,human IL4 [12],0.034 nM
same,IC50,human IL13 R130Q [13],0.199 nM
same,IC50,human IL4 [14],0.034 nM
same,IC50,human IL13 R130Q [15],0.199 nM
B6,A549/TARC IL13 IC50,human IL13 [8],0.092 nM
same,HEK Stat6 human IL13 IC50,human IL13 [8],0.019 nM
same,A549/TARC IL4 IC50,human IL4 [9],0.033 nM
same,HEK stat6 hIL4 IC50,human IL4 [9],0.002 nM
same,Ramos Assay IC50,human IL4 [9],0.0069 nM
same,Kd,human IL4 [10],0.0031 nM
same,Kd,human IL13 [11],0.0166 nM
same,IC50,human IL4 [12],0.024 nM
same,IC50,human IL13 R130Q [13],0.032 nM
same,IC50,human IL4 [14],0.024 nM
same,IC50,human IL13 R130Q [15],0.032 nM
B7,IC50 STAT6,human IL4 [6],0.0014 nM
same,Kd,human IL4 [7],0.0018 nM
B8,STAT6 Phospho IC50,human IL13 [1],0.0174 nM
same,TARC expression IC50,human IL13 [1],0.064 nM
same,Cyno IL13 STAT6 IC50,cyno IL13,0.0964 nM
same,HEK STAT6 IC50,human IL13 [2],0.0174 nM
same,Kd,human IL13 [3],0.0577 nM
same,koff,human IL13 [3],5.74e-05 s⁻¹
same,kon,human IL13 [3],995000 M⁻¹ s⁻¹
same,Kd,human IL13 [4],0.0249 nM
same,IC50,human IL13 R130Q [5],0.031 nM
B9,HEK STAT6 IC50,human IL13 [2],0.0056 nM
same,Kd,human IL13 [4],0.0251 nM
